In US20190023748A1 (NAVIGEN, published 2019):
Bridge positions count the residues as written; N and C are the ends. Square brackets hold non-standard residues; d marks the D form. Primed or numbered codes have the meaning given here. Side chains are listed from the residue outwards. PEG4″ = PEG chain having 4 ethylene glycol repeat units; 4‑arm scaffold = not defined here

B1: Palmitate-conjugated PIE12-trimer (peptide)
peptide: Ac-[dH][dP][dC][dD][dY][dP][dE][dW][dQ][dW][dL][dC][dE][dL]G[dK]([PEG4″-4‑arm scaffold])-NH2
modifications: disulfide 3-12 (inferred); reading uncertain; also: trimer: three PIE12 monomers on 4-arm scaffold, fourth arm PEG24 with D-cysteine bridge carrying palmitate
B2: CPT24-5 kD (peptide)
peptide: Ac-[dH][dP][dC][dD][dY][dP][dE][dW][dQ][dW][dL][dC][dE][dL]G[dK]([PEG4″-4‑arm scaffold])-NH2
modifications: disulfide 3-12 (inferred); reading uncertain; also: PIE12 trimer on 4-arm scaffold, fourth arm 5 kDa linear polydisperse PEG with thiocholesterol
B3: 40 kD PEG-PEG24-PIE12 trimer (peptide)
peptide: Ac-[dH][dP][dC][dD][dY][dP][dE][dW][dQ][dW][dL][dC][dE][dL]GK-NH2
modifications: disulfide 3-12 (inferred); not fully specified (residue 16); also: trimer: three PIE12 monomers on 4-arm scaffold, fourth arm PEG24 carrying 40 kDa Y-branched PEG

Experiments:
Experiment in all cases: cell-based or functional assay
[1] = target: HIV-1 gp41 of strain JRFL (HIV-1 strain JRFL)
[2] = target: T1, HIV-1 gp41 of strain HXB2 (HIV-1 strain HXB2, UniProt P04578 512-856)
[3] = target: HIV-1 gp41 of strain JRFL (HIV-1 strain JRFL); remark: listed apart in the source
[4] = target: T1, HIV-1 gp41 of strain HXB2; remark: listed apart in the source

Binder | fold increase in potency against unconjugated PIE12-trimer (JRFL) [1] [fold] | fold increase in potency against unconjugated PIE12-trimer (HXB2) [2] [fold] | Antiviral potency, IC50, JRFL pseudovirion entry assay [3] [nM] | Antiviral potency, IC50, HXB2 pseudovirion entry assay [4] [nM] | fold reduction of potency against unconjugated PIE12-trimer (JRFL) [1] [fold] | fold reduction of potency against unconjugated PIE12-trimer (HXB2) [2] [fold]
B1 | 3 to 4 | 3 to 4 | 0.54 | 0.225 | – | –
B2 | – | – | 0.026 | – | – | –
B3 | – | – | 71 | 9.5 | 34 | 13
